Test results: US20210221869A1

Biological target: M22 antibody (thyrotropin receptor autoantibody)
Assay: M22-blocking ELISA (KRONUS kit): fusion protein in 2-fold dilutions pre-incubated with peroxidase-M22, then added to the kit plate

Q: With TSHR 21-282 D43A (N01) (Fc fusion) as the substance, how does the IC50 read?
A: 3 µg/mL
